Experimental data taken from patent publication US20180273639A1 (YEDA RESEARCH AND DEVELOPMENT, published 2018).

Key:
[1] = biological target: T1, Homo sapiens QSOX1 (recombinant HsQSOX1) (Homo sapiens, UniProt O00391 33-546, limits assumed); experiment: cell-based or functional assay
T1 sequence: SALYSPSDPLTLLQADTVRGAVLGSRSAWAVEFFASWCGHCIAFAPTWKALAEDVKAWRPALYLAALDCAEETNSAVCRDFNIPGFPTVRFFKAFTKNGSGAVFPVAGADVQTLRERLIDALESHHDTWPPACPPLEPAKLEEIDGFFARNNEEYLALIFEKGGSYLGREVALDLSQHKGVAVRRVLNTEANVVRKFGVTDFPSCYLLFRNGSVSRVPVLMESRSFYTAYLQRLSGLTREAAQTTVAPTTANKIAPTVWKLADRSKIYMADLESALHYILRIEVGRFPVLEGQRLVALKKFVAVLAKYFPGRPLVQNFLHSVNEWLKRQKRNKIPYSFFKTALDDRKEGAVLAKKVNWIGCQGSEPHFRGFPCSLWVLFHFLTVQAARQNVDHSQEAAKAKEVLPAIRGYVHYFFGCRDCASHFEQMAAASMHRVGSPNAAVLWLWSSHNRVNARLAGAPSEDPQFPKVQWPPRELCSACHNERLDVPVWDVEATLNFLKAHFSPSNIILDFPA

MmQSOX1 A116P = MmQSOX1 A116P (Mus musculus); experiment: cell-based or functional assay
[2] = biological target: MmQSOX1 TLPG(138-141)VFPV (Mus musculus); experiment: cell-based or functional assay
[3] = biological target: MmQSOX1 A116P and TLPG(138-141)VFPV (Mus musculus); experiment: cell-based or functional assay
MmQSOX1Trx [4] = biological target: T2, MmQSOX1Trx (Mus musculus, UniProt Q8BND5 36-275); experiment: analytical size-exclusion chromatography
T2 construct: Residues 36-275 of Mus musculus QSOX1, made in E. coli, purified on Ni-NTA; also called MmQSOX1Trv; Trx module of MmQSOX1
T2 sequence: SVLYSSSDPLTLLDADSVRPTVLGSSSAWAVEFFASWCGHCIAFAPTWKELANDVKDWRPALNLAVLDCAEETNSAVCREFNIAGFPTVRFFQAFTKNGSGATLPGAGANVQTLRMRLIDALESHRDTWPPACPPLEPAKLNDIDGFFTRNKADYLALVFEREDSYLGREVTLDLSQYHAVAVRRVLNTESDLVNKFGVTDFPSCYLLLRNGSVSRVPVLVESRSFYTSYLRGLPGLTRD
Method: (§1) MsQSOX1-antibody complexes were injected after a 30 min co-incubation at 4° C. Elution of proteins was monitored by absorbance at 280 nm.

MmQSOX1Erv = biological target: T3, MmQSOX1Erv (Mus musculus, UniProt Q8BND5 289-550, FAD cofactor bound); experiment: analytical size-exclusion chromatography
T3 construct: also called MmQSOX1 Erv module
T3 sequence: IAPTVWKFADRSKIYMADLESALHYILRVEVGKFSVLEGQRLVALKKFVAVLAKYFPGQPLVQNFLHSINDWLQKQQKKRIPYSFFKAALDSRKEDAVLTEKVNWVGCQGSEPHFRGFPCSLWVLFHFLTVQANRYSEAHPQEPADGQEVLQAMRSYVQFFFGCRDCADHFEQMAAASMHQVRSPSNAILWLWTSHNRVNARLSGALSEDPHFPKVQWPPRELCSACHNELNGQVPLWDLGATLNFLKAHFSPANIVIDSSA
Method: as §1

MmQSOX1Trx [5] = biological target: T2, MmQSOX1Trx; experiment: complex purified by size-exclusion chromatography
Method: A stop codon was inserted after the CH1 segment of the heavy chain, to obtain a coding sequence for a Fab fragment. […] Prior to crystallization the complexes were concentrated to 10 mg/ml.

biotinylated MmQSOX1Trx = biological target: T4, biotinylated MmQSOX1Trx (Mus musculus, UniProt Q8BND5 36-275, Biotin on the lysine of the C-terminal AviTag (tag not in the letters); in early screening rounds pre-loaded with streptavidin-APC); experiment: yeast-surface display flow cytometry
T4 construct: Used for yeast-surface display; in the first screening rounds pre-loaded with streptavidin-APC in a 1:4 molar ratio; also called MmQSOX1Trx with AviTag; not shown: purification tag
T4 sequence: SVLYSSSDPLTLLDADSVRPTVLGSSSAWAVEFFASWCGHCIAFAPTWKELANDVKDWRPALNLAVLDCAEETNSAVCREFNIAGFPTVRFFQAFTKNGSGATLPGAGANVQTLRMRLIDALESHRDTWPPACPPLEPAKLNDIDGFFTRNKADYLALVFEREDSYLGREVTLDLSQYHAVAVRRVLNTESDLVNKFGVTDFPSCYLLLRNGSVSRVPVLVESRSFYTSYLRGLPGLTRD

B1: MAb492.1 (antibody, V domains shown)
VH: QVQLKQSGPGLVAPSQSLSITCTVSGFSLTGYGVNWVRQSPGKGLEWLGMIWGDGRTDYKSALKSRLSITKDNSKSQVFLKMNSLQTDDTARYFCASDYYGSGSFAYWGQGTLVTVSA
VL: DVVMTQTHKFMSTSVGDRVSITCKASQDVSTAVAWYQQKSGQSPKLLIHSASYRYTGVPDRFTGSGSGTDFTFTISSVQAEDLAVYYCQQHYSIPLTFGAGTKLELK
Q: How did the “percent inhibition of enzyme activity, oxygen consumption assay” value (shortened to “percent inhibition of enzyme activity”) [1] turn out when B1 was run?
A: 100%

Q: And the “percent inhibition of enzyme activity” value (MmQSOX1 A116P)?
A: ~60%

Q: And the “percent inhibition of enzyme activity” value [2]?
A: ~50%

Q: What about the “percent inhibition of enzyme activity” value [3] of the same binder?
A: 100%

B2: MAb316.1 (antibody, V domains shown)
VH: QVQLQQSGPELVKPGASVKISCKASGYSFTSYYIHWVKQRPGQGLEWIGWIYPGSYNTEYSEKFKGKATLTADTSSSTAYMQLSSLTSEDSAVYYCARSEDWFAYWGQGTLVTVS
VL: QIVLTQSPAIMSASPGEKVTISCSASSSVSYMYWYHQKPGSSPKPWIYRTSNLASGVPARFSGSGSGTSYSLTISSMEAEDAATYYCQQYHSYPLTFGAGTKLELK
notes: Hybridoma antibody from QSOX1 knock-out mice immunised with MmQSOX1
Q: Which results are given for B2?
A: binding result (MmQSOX1Trx [4]): binds; binding result (MmQSOX1Erv): no binding

B3: Fab316.1 (Fab, V domains shown)
VH: QVQLQQSGPELVKPGASVKISCKASGYSFTSYYIHWVKQRPGQGLEWIGWIYPGSYNTEYSEKFKGKATLTADTSSSTAYMQLSSLTSEDSAVYYCARSEDWFAYWGQGTLVTVS
VL: QIVLTQSPAIMSASPGEKVTISCSASSSVSYMYWYHQKPGSSPKPWIYRTSNLASGVPARFSGSGSGTSYSLTISSMEAEDAATYYCQQYHSYPLTFGAGTKLELK
notes: also called Fab fragment of MAb316.1
Q: Does B3 bind (MmQSOX1Trx [5])?
A: binds

B4: scFv492.1 S93A Y99S Y100K G101D S102P D58E T31G H49S S50M Y52Q (scFv, V domains shown)
VH: QVQLKQSGPGLVAPSQSLSITCTVSGFSLTGYGVNWVRQSPGKGLEWLGMIWGDGRTEYKSALKSRLSITKDNSKSQVFLKMNSLQTDDTARYFCASDSKDPGSFAYWGQGTLVTVSA
VL: DVVMTQTHKFMSTSVGDRVSITCKASQDVSGAVAWYQQKSGQSPKLLISMASQRYTGVPDRFTGSGSGTDFTFTISSVQAEDLAVYYCQQHYAIPLTFGAGTKLELK
notes: also called template d; not shown: scFv linker and domain order; yeast display fusion partner and cMyc tag (pETCON)
Q: Does B4 bind (biotinylated MmQSOX1Trx)?
A: binds
